Data as given in US20110166062A1 (INDIANA UNIVERSITY RESEARCH AND TECHNOLOGY, published 2011).
Read-outs that look alike come from different tables or passages of the source. *1 amine or outer side, *2 acyl side, *3 side chain or, on linkers, in order; H or OH if unused. Where no end group is shown, it is not given here. Side-chain parts run from the residue outwards. [ ]: non-standard residue; d: D form. The star is where a group is joined. PEG 40 kDa = PEG (40 kDa) covalently attached to Cys; γGlu = O=C(O)[C@H](CCC(=O)[*:2])N[*:1]; Palmitoyl = CCCCCCCCCCCCCCCC(=O)*; Myristoyl = CCCCCCCCCCCCCC(=O)*; Dab = NCC[C@H](N)C(=O)O; Aib = CC(C)(N)C(=O)O

T1: GIP receptor (UniProt P48546 22-466)
T1 sequence (looked up): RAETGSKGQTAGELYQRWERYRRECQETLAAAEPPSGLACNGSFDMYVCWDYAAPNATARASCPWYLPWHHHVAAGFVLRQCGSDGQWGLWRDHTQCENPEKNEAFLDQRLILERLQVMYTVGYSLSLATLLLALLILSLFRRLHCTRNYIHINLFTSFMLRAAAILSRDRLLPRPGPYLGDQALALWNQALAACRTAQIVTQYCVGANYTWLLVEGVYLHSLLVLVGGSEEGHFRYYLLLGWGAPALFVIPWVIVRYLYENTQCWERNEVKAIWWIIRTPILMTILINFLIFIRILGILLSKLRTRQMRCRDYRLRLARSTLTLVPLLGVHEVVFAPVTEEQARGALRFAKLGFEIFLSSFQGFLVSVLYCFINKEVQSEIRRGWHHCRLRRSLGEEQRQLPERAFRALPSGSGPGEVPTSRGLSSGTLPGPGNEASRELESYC

B1: mt-343 (peptide)
peptide: YXEGTFTSDYSIYLDKQAAXEFVNWLLAGGPSSGAPPPSKC
modifications: AIB at position 20 (Example 25); listed among the acylated glucagon peptides in paragraph 284; other non-standard residues as in the sequence listing
B2: mt-344 (peptide)
peptide: B1 peptide
modifications: AIB at position 20 (Example 25); other non-standard residues as in the sequence listing
B3: mt-345 (peptide)
peptide: HXQGTFTSDYSKYLDEQAAKEFICWLMNGGPSSGAPPPSK
modifications: listed among the acylated glucagon peptides in paragraph 284; non-standard residues as in the sequence listing
B4: mt-368 (peptide)
peptide: Y[Aib]QGTFTSDYSIYLDKQAA[Aib]EFVNWLLAGGPSSGAPPPSK([γGlu-γGlu-Palmitoyl])-NH2
modifications: N-terminus assumed
SMILES: CCCCCCCCCCCCCCCC(=O)N[C@@H](CCC(=O)N[C@@H](CCC(=O)NCCCC[C@H](NC(=O)[C@H](CO)NC(=O)[C@@H]1CCCN1C(=O)[C@@H]1CCCN1C(=O)[C@@H]1CCCN1C(=O)[C@H](C)NC(=O)CNC(=O)[C@H](CO)NC(=O)[C@H](CO)NC(=O)[C@@H]1CCCN1C(=O)CNC(=O)CNC(=O)[C@H](C)NC(=O)[C@H](CC(C)C)NC(=O)[C@H](CC(C)C)NC(=O)[C@H](Cc1c[nH]c2ccccc12)NC(=O)[C@H](CC(N)=O)NC(=O)[C@@H](NC(=O)[C@H](Cc1ccccc1)NC(=O)[C@H](CCC(=O)O)NC(=O)C(C)(C)NC(=O)[C@H](C)NC(=O)[C@H](C)NC(=O)[C@H](CCC(N)=O)NC(=O)[C@H](CCCCN)NC(=O)[C@H](CC(=O)O)NC(=O)[C@H](CC(C)C)NC(=O)[C@H](Cc1ccc(O)cc1)NC(=O)[C@@H](NC(=O)[C@H](CO)NC(=O)[C@H](Cc1ccc(O)cc1)NC(=O)[C@H](CC(=O)O)NC(=O)[C@H](CO)NC(=O)[C@@H](NC(=O)[C@H](Cc1ccccc1)NC(=O)[C@@H](NC(=O)CNC(=O)[C@H](CCC(N)=O)NC(=O)C(C)(C)NC(=O)[C@@H](N)Cc1ccc(O)cc1)[C@@H](C)O)[C@@H](C)O)[C@@H](C)CC)C(C)C)C(N)=O)C(=O)O)C(=O)O
B5: HSDab(Ac)…ibRRAADFVAWLLDTGPSSGAPPPS amide (peptide)
peptide: HS[Dab](Ac)GTFTSDYSKYLD[Aib]RRAADFVAWLLDTGPSSGAPPPS-NH2
modifications: N-terminus assumed
SMILES: CC(=O)NCC[C@H](NC(=O)[C@H](CO)NC(=O)[C@@H](N)Cc1c[nH]cn1)C(=O)NCC(=O)N[C@H](C(=O)N[C@@H](Cc1ccccc1)C(=O)N[C@H](C(=O)N[C@@H](CO)C(=O)N[C@@H](CC(=O)O)C(=O)N[C@@H](Cc1ccc(O)cc1)C(=O)N[C@@H](CO)C(=O)N[C@@H](CCCCN)C(=O)N[C@@H](Cc1ccc(O)cc1)C(=O)N[C@@H](CC(C)C)C(=O)N[C@@H](CC(=O)O)C(=O)NC(C)(C)C(=O)N[C@@H](CCCNC(=N)N)C(=O)N[C@@H](CCCNC(=N)N)C(=O)N[C@@H](C)C(=O)N[C@@H](C)C(=O)N[C@@H](CC(=O)O)C(=O)N[C@@H](Cc1ccccc1)C(=O)N[C@H](C(=O)N[C@@H](C)C(=O)N[C@@H](Cc1c[nH]c2ccccc12)C(=O)N[C@@H](CC(C)C)C(=O)N[C@@H](CC(C)C)C(=O)N[C@@H](CC(=O)O)C(=O)N[C@H](C(=O)NCC(=O)N1CCC[C@H]1C(=O)N[C@@H](CO)C(=O)N[C@@H](CO)C(=O)NCC(=O)N[C@@H](C)C(=O)N1CCC[C@H]1C(=O)N1CCC[C@H]1C(=O)N1CCC[C@H]1C(=O)N[C@@H](CO)C(N)=O)[C@@H](C)O)C(C)C)[C@@H](C)O)[C@@H](C)O
B6: mt-384 (peptide)
peptide: Y[Aib]QGTFTSDK([γGlu-γGlu-Palmitoyl])SIYLDKQAA[Aib]EFVNWLLAGGPSSGAPPPS-NH2
modifications: N-terminus assumed
SMILES: CCCCCCCCCCCCCCCC(=O)N[C@@H](CCC(=O)N[C@@H](CCC(=O)NCCCC[C@H](NC(=O)[C@H](CC(=O)O)NC(=O)[C@H](CO)NC(=O)[C@@H](NC(=O)[C@H](Cc1ccccc1)NC(=O)[C@@H](NC(=O)CNC(=O)[C@H](CCC(N)=O)NC(=O)C(C)(C)NC(=O)[C@@H](N)Cc1ccc(O)cc1)[C@@H](C)O)[C@@H](C)O)C(=O)N[C@@H](CO)C(=O)N[C@H](C(=O)N[C@@H](Cc1ccc(O)cc1)C(=O)N[C@@H](CC(C)C)C(=O)N[C@@H](CC(=O)O)C(=O)N[C@@H](CCCCN)C(=O)N[C@@H](CCC(N)=O)C(=O)N[C@@H](C)C(=O)N[C@@H](C)C(=O)NC(C)(C)C(=O)N[C@@H](CCC(=O)O)C(=O)N[C@@H](Cc1ccccc1)C(=O)N[C@H](C(=O)N[C@@H](CC(N)=O)C(=O)N[C@@H](Cc1c[nH]c2ccccc12)C(=O)N[C@@H](CC(C)C)C(=O)N[C@@H](CC(C)C)C(=O)N[C@@H](C)C(=O)NCC(=O)NCC(=O)N1CCC[C@H]1C(=O)N[C@@H](CO)C(=O)N[C@@H](CO)C(=O)NCC(=O)N[C@@H](C)C(=O)N1CCC[C@H]1C(=O)N1CCC[C@H]1C(=O)N1CCC[C@H]1C(=O)N[C@@H](CO)C(N)=O)C(C)C)[C@@H](C)CC)C(=O)O)C(=O)O
B7: mt-385 (peptide)
peptide: Y[Aib]QGTFISDK([γGlu-γGlu-Palmitoyl])SIYLDKQAA[Aib]EFVNWLLAGGPSSGAPPPS-NH2
modifications: N-terminus assumed
SMILES: CCCCCCCCCCCCCCCC(=O)N[C@@H](CCC(=O)N[C@@H](CCC(=O)NCCCC[C@H](NC(=O)[C@H](CC(=O)O)NC(=O)[C@H](CO)NC(=O)[C@@H](NC(=O)[C@H](Cc1ccccc1)NC(=O)[C@@H](NC(=O)CNC(=O)[C@H](CCC(N)=O)NC(=O)C(C)(C)NC(=O)[C@@H](N)Cc1ccc(O)cc1)[C@@H](C)O)[C@@H](C)CC)C(=O)N[C@@H](CO)C(=O)N[C@H](C(=O)N[C@@H](Cc1ccc(O)cc1)C(=O)N[C@@H](CC(C)C)C(=O)N[C@@H](CC(=O)O)C(=O)N[C@@H](CCCCN)C(=O)N[C@@H](CCC(N)=O)C(=O)N[C@@H](C)C(=O)N[C@@H](C)C(=O)NC(C)(C)C(=O)N[C@@H](CCC(=O)O)C(=O)N[C@@H](Cc1ccccc1)C(=O)N[C@H](C(=O)N[C@@H](CC(N)=O)C(=O)N[C@@H](Cc1c[nH]c2ccccc12)C(=O)N[C@@H](CC(C)C)C(=O)N[C@@H](CC(C)C)C(=O)N[C@@H](C)C(=O)NCC(=O)NCC(=O)N1CCC[C@H]1C(=O)N[C@@H](CO)C(=O)N[C@@H](CO)C(=O)NCC(=O)N[C@@H](C)C(=O)N1CCC[C@H]1C(=O)N1CCC[C@H]1C(=O)N1CCC[C@H]1C(=O)N[C@@H](CO)C(N)=O)C(C)C)[C@@H](C)CC)C(=O)O)C(=O)O

How the values were obtained:
Assay in all cases: cell-based or functional assay
[1] = biological target: T2, glucagon receptor (UniProt P47871 26-477, limits assumed)
[2] = biological target: T1, GIP receptor
[3] = biological target: T3, GLP-1 receptor (UniProt P43220 24-463, limits assumed)
[4] = biological target: T2, glucagon receptor; remark: listed apart in the source
[5] = biological target: T1, GIP receptor; remark: listed apart in the source
[6] = biological target: T3, GLP-1 receptor; remark: listed apart in the source
[7] = biological target: T2, glucagon receptor; remark: listed apart in the source
[8] = biological target: T1, GIP receptor; remark: listed apart in the source
[9] = biological target: T3, GLP-1 receptor; remark: listed apart in the source
[10] = biological target: T2, glucagon receptor; remark: listed apart in the source

T2 sequence (P47871 26-477 limits assumed): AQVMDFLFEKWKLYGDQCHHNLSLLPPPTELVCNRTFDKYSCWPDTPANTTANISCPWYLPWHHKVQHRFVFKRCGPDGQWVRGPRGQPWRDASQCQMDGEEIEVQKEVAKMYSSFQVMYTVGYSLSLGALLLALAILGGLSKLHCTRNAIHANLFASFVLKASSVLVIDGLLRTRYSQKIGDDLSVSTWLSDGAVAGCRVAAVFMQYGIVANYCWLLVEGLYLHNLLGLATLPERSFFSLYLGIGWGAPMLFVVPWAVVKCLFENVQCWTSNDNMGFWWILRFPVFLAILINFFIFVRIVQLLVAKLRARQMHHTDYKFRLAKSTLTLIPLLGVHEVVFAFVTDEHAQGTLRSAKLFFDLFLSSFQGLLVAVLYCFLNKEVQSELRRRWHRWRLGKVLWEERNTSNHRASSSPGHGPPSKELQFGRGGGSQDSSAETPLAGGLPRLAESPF

Binder | EC50, nM; Glucagon Receptor [1] [nM] | relative activity; Glucagon Receptor [1] [%] | EC50, nM; GIP Receptor [2] [nM] | relative activity; GIP Receptor [2] [%] | EC50, nM; GLP-1 Receptor [3] [nM] | relative activity; GLP-1 Receptor [3] [%] | % Relative activity at the Receptor for Glucagon [4] [%] | % Relative activity at the Receptor for GIP [5] [%] | % Relative activity at the Receptor for GLP-1 [6] [%] | % activity* [10] [%] | EC50 (nM) at Glucagon Receptor [10] [nM] | further results
B1 | 41.1 | 0.07 | 0.0243 | 63.8 | 0.0224 | 41.5 | – | – | – | – | – | –
B2 | 159 | 0.02 | 0.0319 | 48.6 | 0.089 | 10.4 | – | – | – | – | – | –
B3 | – | 193 | – | 4.99 | – | 153 | – | – | – | – | – | –
Y[Aib]EGTFTSDYSIYLDKQAA[Aib]EFVC(PEG 40 kDa)WLLAGGPSSGAPPPSK(Myristoyl)-NH2 [mt-353] | 12.5 | 0.17 | 0.0035 | 103 | 0.0049 | 129 | – | – | – | – | – | –
B4 | – | – | – | – | – | – | 492 | 296 | 419 | – | – | EC50, nM; Glucagon Receptor [7]: 0.0069 nM; relative activity; Glucagon Receptor [7]: 492%; EC50, nM; GIP Receptor [8]: 0.00097 nM; relative activity; GIP Receptor [8]: 296%; EC50, nM; GLP-1 Receptor [9]: 0.0038 nM; relative activity; GLP-1 Receptor [9]: 419%
B5 | – | – | – | – | – | – | – | – | – | 113 | 0.023 | –
HS[Dab](Ac)GTFTSDYSKYLD[Aib]RRASDFVSWLLDE [HSDab(Ac)…ibRRASDFVSWLLDE] | – | – | – | – | – | – | – | – | – | 54 | 0.048 | –
HS[Dab](Ac)GTFTSDYSKYLD[Aib]RRATDFVTWLLDE [HSDab(Ac)…ibRRATDFVTWLLDE] | – | – | – | – | – | – | – | – | – | 46 | 0.057 | –
B6 | – | – | – | – | – | – | 228 | 808 | 349 | – | – | –
B7 | – | – | – | – | – | – | 239 | 715 | 3.18 | – | – | –
